Assay: soluble on expression in E. coli; label from the status in PepcDB or PDB records

Q: With “GPGSMTYRYDYRPPNGGVEGSTVLFEPVAREHRATFSCGGGYGRNVMPEIPRPMVLPLVDYLDSFDKRFIEDWDEITTVQMVKLATLLNYEELLNLASAKLAVYLSEKSIEGLRAFLGVENDFKAEEEAELRKEYGRMSEEK” as the sequence, how does the “soluble on expression in E. coli” value read?
A: Its value is “soluble”.

Q: With “GPGSMVERTADQRIRTTEWEEVQYKFGNRVGKYATNEVELLAQKIADNNLNAPLKAYDPHEEKVMDKVERGGYDTGRAEEEGGPAFDDALPDDDDEALAAFRRKRLAELQRQKEVERFGVLRHVSGADYMTEVTEASSTNWVVAVLIKPGHDNCEALLSVMRVAAQRHRDVKFLSMVSTEAIKNFPDRHLPCVLLYRDKKLENQLTEVASWKGKQNRLSLESVERVLHRYGVIRNTDYDHDDDDDDA” as the sequence, how does the “soluble on expression in E. coli” value read?
A: The value was “not soluble”.

Q: Which “soluble on expression in E. coli” value does the source give for “GPGSMWKCYPLRCPAATGVFGCFKRLQDGYSAWCAAVSNQETASAKTSSRGSGAENTENLQLPIHTNPNACPRSVLVVPAGDIKDALRRQKRYDVVADVVMLDLTRGVFGGSDRSGGASEARDRLLRFLRESVRGDHMEGCSDDGEWKTQSGEGTVGQIFNGGRARWVVRVNSPEFDAARGFLDMELVGVLGDLIEGVVLPSVTANTYELVQEFIHPSHKLWAAFNTPLSVLQASAVCAQGHYRYAIVDREELAYEMQYPSVNSEKRSGSLNFSEDVEATQLKHVRSLPALHSACQVMTAAKAHGMYLFDGGFSDVSDSIGFRHDMQRCRAFGFDGRVVLRPSQIAACHEAFVPTSEEVEWAKAVQRTHCMDQYNVNGDNATSVGGDATCRRQRAALILERHAAVQWYNRNPQDDGMDMQRKGAGGNVPQGSVV” here?
A: The value was “not soluble”.

Q: Which “soluble on expression in E. coli” value does the source give for “GPGSMYARYRTRSRFYKRPEKMLKAYNVSPNLLRLPKVKPGLLKGIYTDEKIDLRDRERLELVESIRHPKERDFYQDHTYHNQWIARDLESHQKIQIAGRYPYFSPDYEIKPWIWYPGDTVEVVSGEGAGQRGAIIAVVKYKNEILVQNVNVQDVVIPASETRPEQVVQREHPISVLRVRHVDPSTNQLCHLEIVKVRNKETGELEERRISLESGALLPIPAPEETVEAGDPLKDTAIQDADEETYDREKEMPLLVVRRLQAMENYFVDSLQKSHEYHKALQMRNAQDMQTFQKDVLVRATEKLAAAAAVFGHGAMAEAGSQAASVASESSQAGDAEEDAVKGTITVETVVAEVLKSEQRFRSDAAAPGVPGWWQNMIDAYVSVLEEEEATIEAEAAAQAQAAEADRRAEQLMADATAEVGQSMEEDGTMEGGDEDLDEQDGDLDEDSSRSDRSK” here?
A: The value was “not soluble”.

Q: With “GPGSMYCHAGVPSTSPSPTDFSEVHKILCGHIKQGNNFSVAAAVALEPLHGSSEFWRTCGYRSGIVSALLASSLGVQRETDQLSHLEPMTVADVYAMLRHVVDENAHLRQIIARLESGECDPDDGSGGITSSTERLRSLISEGYDALTGRSSPCMGEYDCGQTPGKWKTCSNGAAGTKRRRDSPEVTEWAYVRPESPVPASETLSPAANSGDDTVDEAEQNNALDVLEQLPALPGTTRTVSSFDAVGEMVNRGAGGPSLHPTNPSEFRVGSERGSTIETHSSSEVSNFANVGVGTSSGKQKRYKFSASEDEAIIKGLARFTKGQQRFQQIYYAYRSVWHPARTVSQLYDHWRGTLRYKVIQQQGYRGKNSVAARSPEKASNMENNE” as the sequence, how does the “soluble on expression in E. coli” value read?
A: Its value is “not soluble”.

Q: Which “soluble on expression in E. coli” value does the source give for “GPGSPPSDPRSLHFYNPYHPNSYIRAMLAVSNVVQEYDSDGMFPVYGFGAVAPFTNGTSHFFPLSGNPSNAYLNGMQAVVDTYAGLLPMLQFSGPTNFAPTIRTITDGARRLRGVYTILLILTDGTITDMQDTIDAIVAADDAPLSIVIIGIGRADFSAMVQLDGDGGVLRDRSNRPARRDLVQFVSFSEFEGKNPARLAAAVLLEIPKQVEVWGRIVHATPGHF” here?
A: Its value is “not soluble”.

Q: With “GPHMPEQYRYTLPVKAGEQRLLGELTGAACATLVAEIAERHAGPVVLIAPDMQNALRLHDEISQFTDQMVMNLADWETLPYDSFSPHQDIISSRLSTLYQLPTMQRGVLIVPVNTLMQRVCPHSFLHGHALVMKKGQRLSRDALRTQLDSAGYRHVDQVMEHGEYATRGALLDLFPMGSELPYRLDFFDDEIDSLRVFDVDSQRTLEEVEAINLLPAHEFPTDKAAIELFRSQWRDTFEVKRDPEHIYQQVSKGTLPAGIEYWQPLFFSEPLPPLFSYFPANTLLVNTGDLETSAERFQADTLARFENRGVDPMRPLLPPQSLWLRVDELFSELKNWPRVQLKTEHLPTKAANANLGFQKLPDLAVQAQQKAPLDALRKFLETFDGPVVFSVESEGRREALGELLARIKIAPQRIMRLDEASDRGRYLMIGAAEHGFVDTVRNLALICESDLLGERVARRRQDSRRTINPDTLIRNLAELHIGQPVVHLEHGVGRYAGMTTLEAGGITGEYLMLTYANDAKLYVPVSSLHLISRYAGGAEENAPLHKLGGDAWSRARQKAAEKVRDVAAELLDIYAQRAAKEGFAFKHDREQYQLFCDSFPFETTPDQAQAINAVLSDMCQPLAMDRLVCGDVGFGKTEVAMRAAFLAVDNHKQVAVLVPTTLLAQQHYDNFRDRFANWPVRIEMISRFRSAKEQTQILAEVAEGKIDILIGTHKLLQSDVKFKDLGLLIVDEEHRFGVRHKERIKAMRANVDILTLTATPIPRTLNMAMSGMRDLSIIATPPARRLAVKTFVREYDSMVVREAILREILRGGQVYYLYNDVENIQKAAERLAELVPEARIAIGHGQMRERELERVMNDFHHQRFNVLVCTTIIETGIDIPTANTIIIERADHFGLAQLHQLRGRVGRSHHQAYAWLLTPHPKAMTTDAQKRLEAIASLEDLGAGFALATHDLEIRGAGELLGEEQSGSMETIGFSLYMELLENAVDALKAGREPSLEDLTSQQTEVELRMPSLLPDDFIPDVNTRLSFYKRIASAKTENELEEIKVELIDRFGLLPDPARTLLDIARLRQQAQKLGIRKLEGNEKGGVIEFAEKNHVNPAWLIGLLQKQPQHYRLDGPTRLKFIQDLSERKTRIEWVRQFMRELEENAIA” as the sequence, how does the “soluble on expression in E. coli” value read?
A: The value was “soluble”.

Q: For “GPLGSALEIAEQLTLLDHLVFKSIPYEEFFGQGWMKAEKYERTPYIMKTTKHFNHVSNFIASEIIRNEDISARASAIEKWVAVADICRCLHNYNAVLEITSSINRSAIFRLKKTWLKVSKQTKSLLDKLQKLVSSDGRFKNLRESLRNCDPPCVPYLGMYLTDLVFIEEGTPNYTEDGLVNFSKMRMISHIIREIRQFQQTTYKIDPQPKVIQYLLDESFMLDEESLYESSLLIEPKLPT”, which “soluble on expression in E. coli” value is on record?
A: The value was “soluble”.

Q: With “GPLGSKAPTVFSQNEASLLNQLKNIANREDYVVTWWDYGYPVRYYSDVKTLVDGGKHLGKDNFFPSFALSKDEQAAANMARLSVEYTEKSFYAPQNDILKSDILQAMMKDYNQSNVDLFLASLSKPDFKIDTPKTRDIYLYMPARMSLIFSTVASFSFINLDTGVLDKPFTFSTAYPLDVKNGEIYLSNGVVLSDDFRSFKIGDNVVSVNSIVEINSIKQGEYKITPIDDKAQFYIFYLKDSAIPYAQFILMDKTMFNSAYVQMFFLGNYDKNLFDLVINSRDAKVFKLKI” as the sequence, how does the “soluble on expression in E. coli” value read?
A: Its value is “soluble”.

Q: Which “soluble on expression in E. coli” value does the source give for “GQDRSEATLIKRFKGEGVRYKAKLIGIDEVSAARGDKLCQDSMMKLKGVVAGARSKGEHKQKIFLTISFGGIKIFDEKTGALQHHHAVHEISYIAKDITDHRAFGYVCGKEGNHRFVAIKTAQAAEPVILDLRDLFQLIYELKQREELEKKA” here?
A: Its value is “soluble”.

Q: For “GRSDTYDVLANRIENAVEQHRTEQRFWNALSWYQRLVEQELAGVCIIQDGTFVYVNQKLADIFSYDQSELIDESPALLTAEGDGDRLPESLRAADSDELDTFHSKFEGRQANGETRTIEVSGGSIEYDGEPAWIGVLRD”, which “soluble on expression in E. coli” value is on record?
A: Its value is “not soluble”.

Q: For “GSARQQEIDMKRQQRFFRIPFIRPADQYKDPQNKKKGWWYAHFDGPWIARQMELHPDKPPILLVAGKDDMEMCELNLEETGLTRKRGAEILPRQFEEIWERCGGIQYLQSAIESRQARPTYATAMLQNLLKGSSGGSLVPR”, which “soluble on expression in E. coli” value is on record?
A: Its value is “soluble”.

Q: Which “soluble on expression in E. coli” value does the source give for “GSDARSRGRVPGYASSSLYRESGIISARQLALLQRMLPRLRLEQLFRCEWLQQRLARGLALGREEVRQILLCAAQDDDGWCSELGDRVNLAVPQSMIDWVLLPVYGWWESLLDQAIPGWRLSLVELETQSRQLRVKSEFWSRVAELEPEQAREELARVAKCQARTQEQVAELAGKLETASALAKSAWPNWQRGMATLLASGGLAGFEPIPEVLECLWQPLCRLDDDVGAADAVQAWLHERNLCQAQDHFYWQS” here?
A: Its value is “not soluble”.

Q: With “GSELKDYYAIMGVKPTDDLKTIKTAYRRLARKYHPDVSKEPDAEARFKEVAEAWEVLSDEQRRAEYDQMWQHR” as the sequence, how does the “soluble on expression in E. coli” value read?
A: The value was “soluble”.

Q: For “GSFTMPGLVDSNPAPPESQEKKPLKPCCACPETKKARDACIIEKGEEHCGHLIEAHKECMRALGFKI”, which “soluble on expression in E. coli” value is on record?
A: Its value is “soluble”.
